Measurements from patent US20140213531A1 (POLYPHOR, published 2014).
Bridges are numbered along the chain shown (N, C = ends). [ ]: non-standard residue; d: D form.

Experiments:
Experiment in all cases: cell-based or functional assay
[1] = molecular target: T1, CathepsinG, from human neutrophils (human, UniProt P08311 21-244)
T1 sequence (looked up): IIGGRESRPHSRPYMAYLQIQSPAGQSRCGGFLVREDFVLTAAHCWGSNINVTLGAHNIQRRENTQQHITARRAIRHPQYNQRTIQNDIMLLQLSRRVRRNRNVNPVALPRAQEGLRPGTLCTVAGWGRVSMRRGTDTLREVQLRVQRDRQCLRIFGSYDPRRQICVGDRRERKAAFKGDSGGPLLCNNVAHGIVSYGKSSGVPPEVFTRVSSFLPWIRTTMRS

[2] = molecular target: Urokinase from human urine (human, UniProt P00749 21-431, limits assumed)
[3] = molecular target: Chymotrypsin, from human pancreas (human, UniProt P17538 19-263)
Sequence of Chymotrypsin, from human pancreas (P17538 19-263): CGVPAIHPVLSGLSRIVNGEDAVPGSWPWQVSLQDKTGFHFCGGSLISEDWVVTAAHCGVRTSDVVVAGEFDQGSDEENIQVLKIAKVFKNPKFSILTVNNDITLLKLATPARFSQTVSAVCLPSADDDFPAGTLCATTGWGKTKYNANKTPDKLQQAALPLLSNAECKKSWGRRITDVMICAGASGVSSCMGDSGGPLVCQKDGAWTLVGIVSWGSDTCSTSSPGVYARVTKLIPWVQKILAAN

Chymase, from human skin = molecular target: T2, Chymase, from human skin (human, UniProt P23946 22-247)
T2 sequence (looked up): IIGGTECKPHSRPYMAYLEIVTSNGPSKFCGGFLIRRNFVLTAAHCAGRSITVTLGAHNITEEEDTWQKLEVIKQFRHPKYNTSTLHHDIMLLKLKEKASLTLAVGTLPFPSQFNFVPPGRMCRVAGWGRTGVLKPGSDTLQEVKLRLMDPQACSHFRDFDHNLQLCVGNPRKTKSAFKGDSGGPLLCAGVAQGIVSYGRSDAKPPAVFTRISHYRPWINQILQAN

[4] = molecular target: T3, Elastase from human neutrophils (human, UniProt P08246 30-247, limits assumed)
T3 sequence (looked up): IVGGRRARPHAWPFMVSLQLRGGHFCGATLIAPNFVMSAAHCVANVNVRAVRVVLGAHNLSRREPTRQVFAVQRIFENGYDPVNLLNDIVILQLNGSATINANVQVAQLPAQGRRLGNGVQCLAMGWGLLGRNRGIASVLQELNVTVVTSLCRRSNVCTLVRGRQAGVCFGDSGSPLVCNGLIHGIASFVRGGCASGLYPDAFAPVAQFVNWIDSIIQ

[5] = molecular target: Trypsin, Iodination grade, from human pancreas (human, UniProt P07477 24-247)
[6] = molecular target: Coagulation Factor Xa, from human plasma (human, UniProt P00742 41-488, limits assumed)
Sequence of Coagulation Factor Xa, from human plasma (P00742 41-488 limits assumed): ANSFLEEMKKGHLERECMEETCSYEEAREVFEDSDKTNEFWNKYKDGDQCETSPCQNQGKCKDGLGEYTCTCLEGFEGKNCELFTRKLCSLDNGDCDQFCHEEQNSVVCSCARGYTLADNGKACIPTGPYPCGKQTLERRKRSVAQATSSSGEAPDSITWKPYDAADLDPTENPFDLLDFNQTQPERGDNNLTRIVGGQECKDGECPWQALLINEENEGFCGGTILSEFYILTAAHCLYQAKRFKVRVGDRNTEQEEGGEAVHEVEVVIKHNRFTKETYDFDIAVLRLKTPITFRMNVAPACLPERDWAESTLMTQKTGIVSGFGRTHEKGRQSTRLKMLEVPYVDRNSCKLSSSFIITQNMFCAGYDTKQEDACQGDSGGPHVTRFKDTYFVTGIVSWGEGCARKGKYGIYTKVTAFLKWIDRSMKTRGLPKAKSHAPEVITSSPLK

[7] = molecular target: Thrombin, from Human Plasma, high activity (human, UniProt P00734 328-622)
[8] = molecular target: Tryptase, from human lung (human, UniProt Q15661 31-275, limits assumed)
Sequence of Tryptase, from human lung (Q15661 31-275 limits assumed): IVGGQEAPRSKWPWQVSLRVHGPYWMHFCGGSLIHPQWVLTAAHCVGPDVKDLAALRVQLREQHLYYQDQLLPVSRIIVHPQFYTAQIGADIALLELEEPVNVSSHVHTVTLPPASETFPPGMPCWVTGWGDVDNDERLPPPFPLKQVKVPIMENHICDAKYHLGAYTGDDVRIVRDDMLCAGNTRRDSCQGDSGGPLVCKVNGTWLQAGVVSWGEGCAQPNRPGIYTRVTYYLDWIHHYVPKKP

B1: Example 30 (peptide)
peptide: XCTKSDPPICY
HELM: PEPTIDE1{[O=C([C@H](CCc1ccccc1)N[*:1])[*:2]].C.T.K.S.D.P.P.I.C.Y.[dP].P}$PEPTIDE1,PEPTIDE1,2:R3-10:R3|PEPTIDE1,PEPTIDE1,1:R1-13:R2$$$V2.0
SMILES: CC[C@H](C)[C@@H]1NC(=O)[C@@H]2CCCN2C(=O)[C@@H]2CCCN2C(=O)[C@H](CC(=O)O)NC(=O)[C@H](CO)NC(=O)[C@H](CCCCN)NC(=O)[C@H]([C@@H](C)O)NC(=O)[C@@H]2CSSC[C@H](NC1=O)C(=O)N[C@@H](Cc1ccc(O)cc1)C(=O)N1CCC[C@@H]1C(=O)N1CCC[C@H]1C(=O)N[C@@H](CCc1ccccc1)C(=O)N2
B1 was tested, and the IC50 [1] was 39 nmol, the “% inhibition at 100 µM” value [2] was 9% and the “% inhibition at 100 µM” value [3] was 49%. The “% inhibition at 100 µM” value (Chymase, from human skin) was 0%, the IC50 [4] was 49900 nmol and the “% inhibition at 100 µM” value [5] was 98%. The “% inhibition at 100 µM” value [6] was 3% and the “% inhibition at 100 µM” value [7] was 2%.

B2: Example 52 (peptide)
peptide: cyclo(ICTKSDPAICR[dP]P)
modifications: disulfide 2-10
With B2 the IC50 [1] was 52 nmol, the “% inhibition at 100 µM” value [2] was 5.4% and the “% inhibition at 100 µM” value [3] was 0%. For the same binder, the “% inhibition at 100 µM” value (Chymase, from human skin) was 42.3%, the IC50 [4] was over 100000 nmol and the “% inhibition at 100 µM” value [8] was 84.2%. For the same binder, the “% inhibition at 100 µM” value [6] was 6% and the “% inhibition at 100 µM” value [7] was 8.7%.

B3: Example 58 (peptide)
peptide: ICTKSDPPXCR
HELM: PEPTIDE1{I.C.T.K.S.D.P.P.[Cha].C.R.[dP].P}$PEPTIDE1,PEPTIDE1,2:R3-10:R3|PEPTIDE1,PEPTIDE1,1:R1-13:R2$$$V2.0
SMILES: CC[C@H](C)[C@@H]1NC(=O)[C@@H]2CCCN2C(=O)[C@H]2CCCN2C(=O)[C@H](CCCNC(=N)N)NC(=O)[C@@H]2CSSC[C@H](NC1=O)C(=O)N[C@@H]([C@@H](C)O)C(=O)N[C@@H](CCCCN)C(=O)N[C@@H](CO)C(=O)N[C@@H](CC(=O)O)C(=O)N1CCC[C@H]1C(=O)N1CCC[C@H]1C(=O)N[C@@H](CC1CCCCC1)C(=O)N2
B3 was tested, and the IC50 [1] was 47.5 nmol, the “% inhibition at 100 µM” value [2] was 6.7% and the “% inhibition at 100 µM” value [3] was 0%. The “% inhibition at 100 µM” value (Chymase, from human skin) was 44.1%, the IC50 [4] was over 100000 nmol and the “% inhibition at 100 µM” value [5] was 97%. For the same binder, the “% inhibition at 100 µM” value [6] was 25% and the “% inhibition at 100 µM” value [7] was 28%.

B4: Example 14 (peptide)
peptide: cyclo(ICTKSDPAICR[dP]P)
modifications: disulfide 2-10
For B4, the IC50 [1] was 52 nmol, the “% inhibition at 100 µM” value [2] was 5.4% and the “% inhibition at 100 µM” value [3] was 0%. For the same binder, the “% inhibition at 100 µM” value (Chymase, from human skin) was 42.3%, the IC50 [4] was over 100000 nmol and the “% inhibition at 100 µM” value [8] was 84.2%. The “% inhibition at 100 µM” value [6] was 6% and the “% inhibition at 100 µM” value [7] was 8.7%.

B5: Example 84 (peptide)
peptide: XCTASXPPQCY
HELM: PEPTIDE1{[Nle].C.T.A.S.[O=C([C@@H](N[*:1])C1CCCCC1)[*:2]].P.P.Q.C.Y.[dP].P}$PEPTIDE1,PEPTIDE1,2:R3-10:R3|PEPTIDE1,PEPTIDE1,1:R1-13:R2$$$V2.0
SMILES: CCCC[C@@H]1NC(=O)[C@@H]2CCCN2C(=O)[C@H]2CCCN2C(=O)[C@H](Cc2ccc(O)cc2)NC(=O)[C@@H]2CSSC[C@H](NC1=O)C(=O)N[C@@H]([C@@H](C)O)C(=O)N[C@@H](C)C(=O)N[C@@H](CO)C(=O)N[C@@H](C1CCCCC1)C(=O)N1CCC[C@H]1C(=O)N1CCC[C@H]1C(=O)N[C@@H](CCC(N)=O)C(=O)N2
With B5 the IC50 [1] was 20200 nmol, the “% inhibition at 100 µM” value [2] was 10.4% and the “% inhibition at 100 µM” value (Chymase, from human skin) was 0%. For the same binder, the IC50 [4] was 18 nmol, the “% inhibition at 100 µM” value [5] was 10.8% and the “% inhibition at 100 µM” value [8] was 4.2%. For the same binder, the “% inhibition at 100 µM” value [6] was 13.3% and the “% inhibition at 100 µM” value [7] was 20.6%.

B6: Example 82 (peptide)
peptide: XCTASXPPQCY
HELM: PEPTIDE1{[Nle].C.T.A.S.[Cha].P.P.Q.C.Y.[dP].P}$PEPTIDE1,PEPTIDE1,2:R3-10:R3|PEPTIDE1,PEPTIDE1,1:R1-13:R2$$$V2.0
SMILES: CCCC[C@@H]1NC(=O)[C@@H]2CCCN2C(=O)[C@H]2CCCN2C(=O)[C@H](Cc2ccc(O)cc2)NC(=O)[C@@H]2CSSC[C@H](NC1=O)C(=O)N[C@@H]([C@@H](C)O)C(=O)N[C@@H](C)C(=O)N[C@@H](CO)C(=O)N[C@@H](CC1CCCCC1)C(=O)N1CCC[C@H]1C(=O)N1CCC[C@H]1C(=O)N[C@@H](CCC(N)=O)C(=O)N2
With B6 the “% inhibition at 100 µM” value [3] was 72.9%, the IC50 [4] was 18 nmol and the “% inhibition at 100 µM” value [8] was 44.5%. The “% inhibition at 100 µM” value [6] was 15.3%.

B7: Example 57 (peptide)
peptide: ICTKSDPPXCR
HELM: PEPTIDE1{I.C.T.K.S.D.P.P.[Nle].C.R.[dP].P}$PEPTIDE1,PEPTIDE1,2:R3-10:R3|PEPTIDE1,PEPTIDE1,1:R1-13:R2$$$V2.0
SMILES: CCCC[C@@H]1NC(=O)[C@@H]2CCCN2C(=O)[C@@H]2CCCN2C(=O)[C@H](CC(=O)O)NC(=O)[C@H](CO)NC(=O)[C@H](CCCCN)NC(=O)[C@H]([C@@H](C)O)NC(=O)[C@@H]2CSSC[C@H](NC1=O)C(=O)N[C@@H](CCCNC(=N)N)C(=O)N1CCC[C@@H]1C(=O)N1CCC[C@H]1C(=O)N[C@@H]([C@@H](C)CC)C(=O)N2
With B7 the IC50 [1] was 41 nmol, the “% inhibition at 100 µM” value [2] was 4% and the “% inhibition at 100 µM” value [3] was 0%. For the same binder, the “% inhibition at 100 µM” value (Chymase, from human skin) was 26.9%, the IC50 [4] was over 100000 nmol and the “% inhibition at 100 µM” value [5] was 94%. For the same binder, the “% inhibition at 100 µM” value [6] was 32% and the “% inhibition at 100 µM” value [7] was 11%.

B8: Example 60 (peptide)
peptide: FCTXSDPPICY
HELM: PEPTIDE1{F.C.T.[Nle].S.D.P.P.I.C.Y.[dP].P}$PEPTIDE1,PEPTIDE1,2:R3-10:R3|PEPTIDE1,PEPTIDE1,1:R1-13:R2$$$V2.0
SMILES: CCCC[C@@H]1NC(=O)[C@H]([C@@H](C)O)NC(=O)[C@@H]2CSSC[C@H](NC(=O)[C@H]([C@@H](C)CC)NC(=O)[C@@H]3CCCN3C(=O)[C@@H]3CCCN3C(=O)[C@H](CC(=O)O)NC(=O)[C@H](CO)NC1=O)C(=O)N[C@@H](Cc1ccc(O)cc1)C(=O)N1CCC[C@@H]1C(=O)N1CCC[C@H]1C(=O)N[C@@H](Cc1ccccc1)C(=O)N2
B8 was tested, and the IC50 [1] was 38 nmol, the “% inhibition at 100 µM” value [2] was 9% and the “% inhibition at 100 µM” value [3] was 4%. For the same binder, the “% inhibition at 100 µM” value (Chymase, from human skin) was 60%, the IC50 [4] was over 100000 nmol and the “% inhibition at 100 µM” value [5] was 90%. For the same binder, the “% inhibition at 100 µM” value [6] was 11% and the “% inhibition at 100 µM” value [7] was 0%.
